± gives the standard deviation of the averaged measurements.
B1: library; a variant is named by its letters at N, in order (parent)
chain: GCUGUCACCGGUGUAUUACCCUAGUGGUCGACCGGUCUGAUGAGUCUNNNNNNAGACGAAACAGC

Assays:
hypoxanthine [1] = variants of: B1; assay: FACS-Seq fitted mean relative fluorescence mCherry/BFP without ligand (log10 relative fluorescence); ligand: hypoxanthine (xanthine aptamer); higher = higher reporter protein expression; details: HEK293T, ligand present: no
Summary of the method: (§1)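 Fluorescence is reported as a normalized fitted mean of sorted-bin read counts. Lentivirally transduced HEK293T libraries (mCherry ribozyme-switch reporter, EF1α-BFP marker) were enriched, treated with or without ligand for 48 h, and sorted into 6 mCherry/BFP bins for MiSeq sequencing of PCR-amplified genomic DNA. The normal fit was on log10(mCherry/BFP), scaled to five spiked-in control ribozymes.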

hypoxanthine [2] = variants of: B1; assay: normalized RNA/DNA level with ligand (relative to sTRSVctl = 100) (log10 (% of sTRSVctl)); ligand: hypoxanthine (xanthine aptamer); higher = less ribozyme self-cleavage, higher mRNA level; details: ligand concentration (+) RNA-Seq: 5 mM, HEK293T, reporter: mCherry (pCS4076), ligand present: yes
Summary of the method: (§2)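 Library plasmids carrying ribozyme switches linked to mCherry, or to eGFP in some ligand experiments, were transfected into HEK293T at 4 µg per 6-well well, with any ligand added 1 h earlier. Seventy-two hours on, total RNA was extracted with EDTA and reverse-transcribed, amplified, barcoded and sequenced. RNA level was RNA over DNA reads normalized to a spiked-in non-cleaving sequence or to the top sequences, then scaled and log-transformed. The top set was 25 sequences, the transform was ×100 and log10, and sequences needed ≥100 DNA reads.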

hypoxanthine [3] = variants of: B1; assay: normalized RNA/DNA level without ligand (relative to sTRSVctl = 100) (log10 (% of sTRSVctl)); ligand: hypoxanthine (xanthine aptamer); higher = less ribozyme self-cleavage, higher mRNA level; details: HEK293T, reporter: mCherry (pCS4076), ligand present: no
Summary of the method: as §2

hypoxanthine [4] = variants of: B1; assay: FACS-Seq fitted mean relative fluorescence mCherry/BFP with ligand (log10 relative fluorescence); ligand: hypoxanthine (xanthine aptamer); ligand concentration (+) FACS-Seq: 5 mM; higher = higher reporter protein expression; details: HEK293T, ligand present: yes
Summary of the method: as §1

Variant	FACS-Seq fitted mean (log10) (hypoxanthine [1])	normalized RNA/DNA level with ligand (log10) (hypoxanthine [2])	normalized RNA/DNA level without ligand (log10) (hypoxanthine [3])	FACS-Seq fitted mean (log10) (hypoxanthine [4])
GCUGUCACCGGUGUAUUACCCUAGUGGUCGACCGGUCUGAUGAGUCUAUAUGUAGACGAAACAGC [AUAUGU]	0.416 ± 0.0064	1.886 ± 0.0057	1.68 ± 0.054	0.511 ± 0.015
GCUGUCACCGGUGUAUUACCCUAGUGGUCGACCGGUCUGAUGAGUCUCUAUUAAGACGAAACAGC [CUAUUA]	0.569 ± 0.023	1.942 ± 0.019	1.85 ± 0.054	0.484 ± 0.053
GCUGUCACCGGUGUAUUACCCUAGUGGUCGACCGGUCUGAUGAGUCUCUAUUCAGACGAAACAGC [CUAUUC]	0.8316 ± 0.0023	2 ± 0.02	1.84 ± 0.055	0.762 ± 0.023
GCUGUCACCGGUGUAUUACCCUAGUGGUCGACCGGUCUGAUGAGUCUCUAUUGAGACGAAACAGC [CUAUUG]	0.179 ± 0.031	1.95 ± 0.048	1.843 ± 0.0087	0.763 ± 0.041
GCUGUCACCGGUGUAUUACCCUAGUGGUCGACCGGUCUGAUGAGUCUUUAUGGAGACGAAACAGC [UUAUGG]	0.281 ± 0.094	1.89 ± 0.032	1.666 ± 0.015	0.317 ± 0.05
GCUGUCACCGGUGUAUUACCCUAGUGGUCGACCGGUCUGAUGAGUCUGUAUUGAGACGAAACAGC [GUAUUG]	-0.148 ± 0.011	1.882 ± 0.011	1.45 ± 0.1	0.209 ± 0.0066
GCUGUCACCGGUGUAUUACCCUAGUGGUCGACCGGUCUGAUGAGUCUUUAUUAAGACGAAACAGC [UUAUUA]	0.289 ± 0.0048	1.96 ± 0.086	1.91 ± 0.062	0.398 ± 0.036
GCUGUCACCGGUGUAUUACCCUAGUGGUCGACCGGUCUGAUGAGUCUUUCAAUAGACGAAACAGC [UUCAAU]	-0.589 ± 0.025	1.937 ± 0.015	1.81 ± 0.024	-0.1336 ± 0.00015
GCUGUCACCGGUGUAUUACCCUAGUGGUCGACCGGUCUGAUGAGUCUUUCAAAAGACGAAACAGC [UUCAAA]	0.11 ± 0.051	1.95 ± 0.026	1.802 ± 0.0086	0.0695 ± 0.15
GCUGUCACCGGUGUAUUACCCUAGUGGUCGACCGGUCUGAUGAGUCUUUCAAGAGACGAAACAGC [UUCAAG]	0.352 ± 0.023	1.907 ± 0.0058	1.72 ± 0.056	0.545 ± 0.024
GCUGUCACCGGUGUAUUACCCUAGUGGUCGACCGGUCUGAUGAGUCUUUCACAAGACGAAACAGC [UUCACA]	0.502 ± 0.065	1.9 ± 0.051	1.88 ± 0.05	0.58 ± 0.026
GCUGUCACCGGUGUAUUACCCUAGUGGUCGACCGGUCUGAUGAGUCUGUCAAAAGACGAAACAGC [GUCAAA]	0.456 ± 0.0096	1.91 ± 0.047	1.733 ± 0.0061	0.532 ± 0.0073
GCUGUCACCGGUGUAUUACCCUAGUGGUCGACCGGUCUGAUGAGUCUGUCAAGAGACGAAACAGC [GUCAAG]	0.65 ± 0.074	1.85 ± 0.077	1.46 ± 0.07	0.667 ± 0.011
GCUGUCACCGGUGUAUUACCCUAGUGGUCGACCGGUCUGAUGAGUCUGUCAGCAGACGAAACAGC [GUCAGC]	0.371 ± 0.0086	1.925 ± 0.011	1.79 ± 0.018	0.605 ± 0.059
GCUGUCACCGGUGUAUUACCCUAGUGGUCGACCGGUCUGAUGAGUCUGUCAGAAGACGAAACAGC [GUCAGA]	-0.213 ± 0.0037	1.897 ± 0.0028	1.74 ± 0.042	-0.0451 ± 0.017
GCUGUCACCGGUGUAUUACCCUAGUGGUCGACCGGUCUGAUGAGUCUCUCACUAGACGAAACAGC [CUCACU]	0.473 ± 0.021	1.99 ± 0.041	1.92 ± 0.05	0.419 ± 0.12
GCUGUCACCGGUGUAUUACCCUAGUGGUCGACCGGUCUGAUGAGUCUAUCAAGAGACGAAACAGC [AUCAAG]	0.0695 ± 0.06	1.85 ± 0.043	1.5 ± 0.06	0.339 ± 0.047
GCUGUCACCGGUGUAUUACCCUAGUGGUCGACCGGUCUGAUGAGUCUAUAUUCAGACGAAACAGC [AUAUUC]	0.242 ± 0.014	1.92 ± 0.042	1.88 ± 0.051	0.166 ± 0.071
GCUGUCACCGGUGUAUUACCCUAGUGGUCGACCGGUCUGAUGAGUCUAUAUUGAGACGAAACAGC [AUAUUG]	0.2149 ± 0.0019	1.87 ± 0.053	1.53 ± 0.075	0.486 ± 0.011
GCUGUCACCGGUGUAUUACCCUAGUGGUCGACCGGUCUGAUGAGUCUAUCAGAAGACGAAACAGC [AUCAGA]	-0.0827 ± 0.0075	1.9287 ± 0.00064	1.828 ± 0.0044	0.00695 ± 0.085
GCUGUCACCGGUGUAUUACCCUAGUGGUCGACCGGUCUGAUGAGUCUGUAUGUAGACGAAACAGC [GUAUGU]	0.23 ± 0.082	1.899 ± 0.013	1.77 ± 0.017	0.398 ± 0.0075

Reference: the supplement of paper PMC6757056
